Measured values as given in patent US20250339501A1, “COMPOSITIONS AND METHODS FOR TREATING METABOLIC DISEASE” (The Regents of the University of California, priority 2021, published 2025).
Entries after “also recorded” stand apart in the source; their conditions may differ. Like-named read-outs stand apart in the source and are kept apart here.

Key:
C2C12 myotubes = assay: Dj1 release from muscle cells into culture medium; format: cell-based, mouse; conditions: for protein level of Dj1 in the media: C2C12 myotubes with or without CCCP, Tg; for muscle cell release of Dj1: in vitro (C2C12 myotubes) and ex vivo muscle
Protocol: Seeded cells were cultured in 6-well plates for 24 hours prior to transfection. Transfections were performed using Lipofectamine 2000 and PLUS reagent according to manufacturer instructions (Invitrogen, Carlsbad, CA). Human HepG2 cells were cultured in DMEM/low media containing 10% fetal bovine serum with penicillin/streptomycin. Mouse AML12 cells were maintained in DMEM/F12, ITS supplement (Gibco, USA), 40 ng/ml dexamethasone, and 10% fetal bovine serum with penicillin/streptomycin.
An adenovirus encoding mouse Dj1 was generated using the ViraPower Adenoviral Expression System (Invitrogen) according to manufacturer instructions. […] Entry clones were obtained by recombination of the purified DNA fragment with the pDONR221 vector using Gateway BP clonase II. Mouse Dj1 insert was transferred from the entry clones into the pAd/CMV/V5-DEST vector (Invitrogen) using the Gateway LR Clonase II enzyme mix. The recombinant adenoviral purified plasmid was used to generate adenoviral particles according to the manufacturer's instructions (Invitrogen). Adenoviral titer was determined using the AdenoX Rapid Titer Kit (Clontech).
(§1) Mouse tissue and cell samples were pulverized in liquid nitrogen and homogenized in RIPA lysis buffer containing complete EDTA-Free protease (Roche) and Phosphatase Inhibitor Cocktail 2 (Sigma-Aldrich, St. Louis, MO). All lysates were centrifuged, clarified, and resolved by SDS-PAGE. […] Densitometric analyses were performed using BioRad Quantity One image software (Bio-Rad, Hercules, CA).
(§2) Mouse serum Dj1 and CK were measured by mouse Park7/DJ-1 DuoSet ELISA (DY8136, R&D systems) and mouse CKMB/Creatine Kinase MB ELISA Kit (LS-F5745, LSBio) respectively. Mouse Serum AST and ALT were measured by AST activity assay kit (Sigma, MAK055) and ALT activity assay kit (Sigma, MAK052) respectively.
Strenuous exercise increases the endoplasmic reticulum (ER) stress, which at an excessive level can lead to muscle damage (12). […] To determine the mechanisms that drive skeletal muscle releases of Dj1, ER stress markers were examined in skeletal muscles of the three different mouse models described above. […] To further validate muscle cells release of Dj1, in vitro studies were assessed.
(§3) Extracellular vesicles are cell-derived membranous structures including exosomes and microvesicles bodies, which are enriched with proteins, lipids, DNA, and RNA (14). To examine whether Dj1 is released through the extracellular vesicle system, Dj1 levels were determined in the culture media of C2C12 myotubes that were treated with or without CCCP, Tg, exosome generation inhibitor GW4869, or exocytosis inhibitor Exo1. […] To visualize the release of Dj1 from muscle cells, time-lapse imaging was performed on C2C12 myocytes transfected with Dj1-GFP. […] To further determine which types of extracellular vesicles were enriched with Dj1, microvesicle bodies (MVBs) and exosomes from C2C12 culture media and CTX-treated mouse plasma were separated by differential centrifugation.

C2C12 myocytes = assay: Time-lapse imaging of Dj1-GFP transfected C2C12 myocytes; format: cell-based, mouse
Protocol: Before image analysis, raw .czi files were automatically processed into deconvoluted Airyscan images using Zen software. Time-lapse images were acquired at approximately 1 frame/second.
as §3

C57BL/6J mice = assay: Plasma Dj1 after intramuscular CTX injection; format: in vivo, mouse; conditions: 2 days post intramuscular administration
Protocol: as §2
Cardiotoxin (CTX) induces skeletal muscle injury and regeneration. To further validate the effect of muscle injury on circulating Dj1, C57BL/6J mice were injected intramuscularly with CTX, and plasma Dj1 levels were measured 2 days post-administration.

cleaved caspase 3 = conditions: C2C12 myocytes
Protocol: as §1

HFD-fed mice = assay: rDj1 or tDj1 intravenous every other day for 14 days in HFD-fed mice; format: in vivo, mouse
Protocol: C57BL/10cSn-Dmd^mdx/J (001801, mdx) and C57BL/10ScSnJ (000476, WT) mice were ordered directly from The Jackson Laboratory. Different ages of mdx and WT mice were obtained. Animals were weaned 21 days after birth and had free access to food and water and were housed on 12 h light-dark cycle. C57BL/6J males were introduced to a normal diet (NC, Research Diets D15100601) or high-fat diet (HFD, Research Diets D12331), and maintained on a diet for the indicated time. The HFD diet derives 58% of its kilocalories (kcal) from fat (soybean and coconut oil), 25.5% from carbohydrates (sucrose and maltodextrin), and 16.4% from protein (casein). NASH model mice were fed for up to 28 weeks with the NASH diet (Envigo, TD.120528) and 42% fructose (Sigma, F0127) in the water (1,2). The NASH diet is composed of 405.36 g/Kg sucrose and 12.5 g/Kg cholesterol. Recombinant mouse Dj1 protein (Novus, NBP2-59523) or truncated mouse Dj1 (tDj1, GenScript) protein was intravenously injected every day for 5 days or every other day for 2 weeks. Skeletal muscle-specific Park7 knockout mice were generated by crossing Park7 flox mice with Myl1-cre mice (JAX, #024713). Mice were raised in microisolator cages with a 12 h: 12 h light: dark cycle. All procedures were performed in accordance with the Guide for Care and Use of Laboratory Animals of the National Institutes of Health, and were approved by the Animal Subjects Committee of the University of California, Los Angeles.
Cryosections (10-μm thick transverse sections of frozen muscle cut in a cryostat (Leica) at −20° C.) were subjected to hematoxylin & eosin (H&E) staining (10, 54). Liver tissues were fixed in phosphate-buffered 10% formalin and embedded in paraffin wax. Sections were cut and stained with H&E.
as §2
Plasma and liver NEFA, Cholesterol, and Triglyceride were analyzed by their respective kits (FUJIFILM Wako Diagnostics)
About 80 mg of liver samples were homogenized and sonicated in PBS (pH 7.4) for lipid extraction. An internal standard mixture (ISTD) and CHCl3:methanol (2:1) were added to the samples before being vortexed, mixed, sonicated, and centrifuged. The supernatant containing the lipid was removed and dried, the lipids were resuspended in ethanol and then sonicated.
(§4) Dj1 is a highly conserved protein that is ubiquitously expressed in most mammalian tissues. It belongs to the Dj1/ThiJ/PfpI family chaperones, and its expression is induced by oxidative stress (20,21). To determine whether the PfpI domain of Dj1 exerts a similar role as the full-length Dj1 protein (rDj1) in liver cells, truncated Dj1 (tDj1) comprising of only the PfpI domain was purified (FIG. 5O). HFD-fed mice were intravenous injected with rDj1 or tDj1 every other day for 14 days.

JNK [1] = assay: Anisomycin-induced JNK phosphorylation in AML12 cells; format: cell-based; conditions: mouse AML12 liver cells
Description: (§5) As described above, Dj1 administration stimulates AMPK phosphorylation in the liver cells. However, elevated AMPK phosphorylation in vivo was not observed (data not shown). Numerous studies have reported that the c-Jun N terminal kinase (JNK) is critical to the development of steatosis and chronic liver injury in NAFLD (22-25). […] However, not all MAPK pathways were activated. For example, phosphorylation of p42 was not altered by tDj1 treatment (FIG. 6O). Both rDj1 and tDj1 suppressed TNFα and Anisomycin-induced JNK (p54 and p46) phosphorylation in human HepG2 and mouse AML12 liver cells, respectively (FIGS. 6C-6D).

JNK [2] = assay: JNK phosphorylation immunoblot in liver of HFD-fed mice; format: in vivo, mouse
Description: as §5

AML12 cells = assay: TG and NEFA content in palmitate acid-treated AML12 cells; format: cell-based, mouse
Protocol: Mouse myoblast cells (C2C12) were maintained in high glucose DMEM/high, 10% fetal bovine serum with penicillin/streptomycin. pRK5-Dj1-HA plasmid was purchased from Addgene (#29396). Seeded cells were cultured in 6-well plates for 24 hours prior to transfection. Transfections were performed using Lipofectamine 2000 and PLUS reagent according to manufacturer instructions (Invitrogen, Carlsbad, CA). Human HepG2 cells were cultured in DMEM/low media containing 10% fetal bovine serum with penicillin/streptomycin. Mouse AML12 cells were maintained in DMEM/F12, ITS supplement (Gibco, USA), 40 ng/ml dexamethasone, and 10% fetal bovine serum with penicillin/streptomycin. For in vitro experiments, HepG2 cells were treated with or without recombinant human Dj1 protein (Novus, NBC1-18334) in serum-free media containing 25 mM glucose, 200 μM palmitic acid, and 0.25% bovine serum albumin for an indicated time.
as §4

p38 = p38 phosphorylation immunoblot in liver of HFD-fed mice; format: in vivo, mouse
Description: as §5

NASH diet-fed mice = assay: tDj1 administration in NASH diet-fed mice
Protocol: Animals were weaned 21 days after birth and had free access to food and water and were housed on 12 h light-dark cycle. C57BL/6J males were introduced to a normal diet (NC, Research Diets D15100601) or high-fat diet (HFD, Research Diets D12331), and maintained on a diet for the indicated time. […] NASH model mice were fed for up to 28 weeks with the NASH diet (Envigo, TD.120528) and 42% fructose (Sigma, F0127) in the water (1,2). […] Mice were raised in microisolator cages with a 12 h: 12 h light: dark cycle. All procedures were performed in accordance with the Guide for Care and Use of Laboratory Animals of the National Institutes of Health, and were approved by the Animal Subjects Committee of the University of California, Los Angeles.

p42 = p42 phosphorylation immunoblot in liver of HFD-fed mice; format: in vivo, mouse
Description: as §5

ASK1 = ASK1 phosphorylation immunoblot, in vitro and in liver of HFD-fed mice; parameters: species or system mouse; conditions: in vitro and in vivo; liver of HFD-fed WT mice
Description: A wide variety of mechanisms activate the JNK pathway. […] Moreover, ASK1 is activated by various stresses, including oxidative stress, ER stress, calcium overload, and receptor-mediated inflammatory signals such as TNFα and lipopolysaccharide (LPS) (26,27). rDj1 administration suppressed both baseline and TNFα-induced ROS levels in HepG2 cells, which may contribute to reducing liver inflammation (FIG. 6F).

With `COC(=O)c1ccccc1NC(=O)c1ccc(F)cc1` [Exo1] the “protein level of Dj1 in the media” value (C2C12 myotubes) was “significantly reduced”.

`O=C(/C=C/c1ccc(/C=C/C(=O)Nc2ccc(C3=NCCN3)cc2)cc1)Nc1ccc(C2=NCCN2)cc1` [GW4869] was tested, and the “protein level of Dj1 in the media” value (C2C12 myotubes) was “significantly reduced”.

For `C/C=C(/C)C(=O)O[C@H]1C(C)=C2[C@H]([C@@H]1OC(=O)CCCCCCC)[C@@](C)(OC(C)=O)C[C@H](OC(=O)CCC)[C@@]1(O)[C@H]2OC(=O)[C@@]1(C)O` [Thapsigargin], the “muscle cell release of Dj1” value (C2C12 myotubes) was “release Dj1” and the “budding of vesicles from cells” value (C2C12 myocytes; Dj1-GFP transfected C2C12 myocytes, time-lapse imaging) was “Robust budding of vesicles”.

With Cardiotoxin [CTX] the “Dj1 in the plasma” value (C57BL/6J mice) was “increase”.

With “carbonyl cyanide m-chlorophenyl hydrazine [CCCP]” the “protein level of cleaved caspase 3” value (cleaved caspase 3) was “did not alter”, the “Dj1 levels in the culture medium” value (C2C12 myotubes; C2C12 myocytes / myotubes) was “elevated” and the “HA-Dj1 levels in the media” value (C2C12 myotubes; C2C12 myocytes transfected with HA-tagged Dj1) was “elevated”. The “muscle cell release of Dj1” value (C2C12 myotubes) was “release Dj1” and the “budding of vesicles from cells” value (C2C12 myocytes) was “Robust budding of vesicles”.

B1: tDj1: truncated mouse Dj1 comprising only the PfpI domain, residues 32-173 per b12, SEQ ID NO: 3 (GenScript) (protein, listed as Mus musculus)
chain: KVTVAGLAGKDPVQCSRDVMICPDTSLEDAKTQGPYDVVVLPGGNLGAQNLSESPMVKEILKEQESRKGLIAAICAGPTALLAHEVGFGCKVTTHPLAKDKMMNGSHYSYSESRVEKDGLILTSRGPGTSFEFALAIVE
In the case of B1, the “level of TG in the liver” value (HFD-fed mice) is reported as “significantly reduced”, the “liver histology, lipid accumulation” value (HFD-fed mice) is reported as “less lipid accumulation” and the “plasma ALT levels” value (HFD-fed mice) is reported as “reducing”. The “plasma AST levels” value (HFD-fed mice) was “reducing”, the “Anisomycin-induced JNK (p54 and p46) phosphorylation” value (JNK [1]) was “suppressed; also recorded: inhibits” and the “JNK (p46 subunit) phosphorylation” value (JNK [2]) was “significantly reduced”. For the same molecule, the TG levels (AML12 cells) was “reduced”, the p38 phosphorylation (p38) was “decreased” and the “TG levels in the liver” value (NASH diet-fed mice; NASH diet-fed mice) was “did not considerably reduce”. The fibrosis scores (NASH diet-fed mice; NASH diet-fed mice) was “significantly reduced”, the “hepatic apoptosis (TUNEL assay)” value (NASH diet-fed mice; NASH diet-fed mice) was “suppressed” and the “liver ALT activity” value (NASH diet-fed mice; NASH diet-fed mice) was “robustly reduced”. The “total cholesterol level in the liver” value (NASH diet-fed mice; NASH diet-fed mice) was “significantly suppressed”, the inflammatory gene expression (NASH diet-fed mice; liver of NASH diet-fed mice) was “significantly reduced” and the “liver fibrosis gene expression” value (NASH diet-fed mice; liver of NASH diet-fed mice) was “significantly reduced”. For the same molecule, the “protein levels of apoptosis markers (cleaved caspase 3, cleaved caspase 8, cleaved caspase 9, cleaved PARP)” value (NASH diet-fed mice; liver of NASH diet-fed mice) was “decreased”, the body weight (NASH diet-fed mice; mice on NASH diet for 28 weeks) was “significantly reduced” and the glucose tolerance (NASH diet-fed mice; mice on NASH diet for 28 weeks) was “improved”. For the same molecule, the insulin tolerance (NASH diet-fed mice; mice on NASH diet for 28 weeks) was “improved”, the “phosphorylation of p42” value (p42) was “not altered” and the “phosphorylation of apoptosis signal-regulating kinase 1 (ASK1)” value (ASK1) was “reduced; also recorded: inhibits”.
